{"source": "patent US20250283117", "about": "“RNA-GUIDED NUCLEASES AND ACTIVE FRAGMENTS AND VARIANTS THEREOF AND METHODS OF USE” (Life Edit Therapeutics, Inc., published 2025)", "data": [{"test_system": "T1, APG05459.1 (Enterococcus sp.)", "T1 sequence": "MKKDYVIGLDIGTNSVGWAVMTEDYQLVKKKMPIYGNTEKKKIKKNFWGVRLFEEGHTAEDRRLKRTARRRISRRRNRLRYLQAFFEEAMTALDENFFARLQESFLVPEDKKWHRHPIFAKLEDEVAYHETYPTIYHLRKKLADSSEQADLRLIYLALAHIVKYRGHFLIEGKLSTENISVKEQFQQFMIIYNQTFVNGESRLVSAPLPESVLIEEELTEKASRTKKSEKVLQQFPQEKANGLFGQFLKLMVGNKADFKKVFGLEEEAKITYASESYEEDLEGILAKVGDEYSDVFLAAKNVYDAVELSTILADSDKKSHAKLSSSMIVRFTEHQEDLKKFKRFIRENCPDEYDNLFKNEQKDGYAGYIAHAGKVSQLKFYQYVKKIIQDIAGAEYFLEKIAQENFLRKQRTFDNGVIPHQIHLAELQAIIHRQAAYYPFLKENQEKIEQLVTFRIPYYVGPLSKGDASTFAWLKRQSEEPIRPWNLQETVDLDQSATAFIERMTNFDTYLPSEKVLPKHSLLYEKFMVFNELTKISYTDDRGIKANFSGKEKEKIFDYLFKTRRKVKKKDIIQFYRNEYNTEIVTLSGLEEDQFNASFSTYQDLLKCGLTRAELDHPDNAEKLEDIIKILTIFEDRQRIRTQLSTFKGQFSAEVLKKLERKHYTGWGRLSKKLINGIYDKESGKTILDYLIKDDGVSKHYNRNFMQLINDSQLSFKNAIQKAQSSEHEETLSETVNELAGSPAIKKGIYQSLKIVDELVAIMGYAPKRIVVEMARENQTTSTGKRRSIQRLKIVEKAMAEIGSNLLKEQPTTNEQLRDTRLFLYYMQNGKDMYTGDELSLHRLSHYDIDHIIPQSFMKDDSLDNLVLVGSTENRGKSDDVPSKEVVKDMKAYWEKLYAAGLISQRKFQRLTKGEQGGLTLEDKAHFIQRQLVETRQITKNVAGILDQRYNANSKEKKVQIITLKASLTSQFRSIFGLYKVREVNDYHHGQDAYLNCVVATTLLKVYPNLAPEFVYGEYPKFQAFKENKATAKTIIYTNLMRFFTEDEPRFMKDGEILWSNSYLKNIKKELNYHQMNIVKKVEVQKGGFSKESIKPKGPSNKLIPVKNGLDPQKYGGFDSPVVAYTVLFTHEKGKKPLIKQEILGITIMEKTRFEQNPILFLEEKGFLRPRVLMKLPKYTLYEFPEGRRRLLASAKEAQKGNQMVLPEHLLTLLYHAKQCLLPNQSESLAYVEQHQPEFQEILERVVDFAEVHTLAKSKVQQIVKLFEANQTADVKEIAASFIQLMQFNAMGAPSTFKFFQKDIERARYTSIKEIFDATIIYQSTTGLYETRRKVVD", "assay": "cleavage_in_vitro", "settings": "not given", "units": {"activity": "% cleaved"}, "values": [{"sequence": "GAGCGGACAGCAGCUUCCUAUAUCUCGUACNNNNNNNNNNNNNNNNNNNNNNNNNGUUUUAGAGUCAUGUUAAAGAACAUAGCAAGUUAAAAUAAGGUUUUAACCGUAAUCAACUGUAAAGUGGCGCUGUUUCGGCGCUUUUUUUGUUU / CAGCGGACAGCAGCTTCCTATATCTCGTAC / GTACGAGATATAGGAAGCTGCTGTCCGCTG [Sequence 1 sgRNA for APG05459.1 ; target mismatch 30]", "activity": 57}, {"sequence": "GAGCGGACAGCAGCUUCCUAUAUCUCGUACNNNNNNNNNNNNNNNNNNNNNNNNNGUUUUAGAGUCAUGUUAAAGAACAUAGCAAGUUAAAAUAAGGUUUUAACCGUAAUCAACUGUAAAGUGGCGCUGUUUCGGCGCUUUUUUUGUUU / GAGCGGACAGCACCTTCCTATATCTCGTAC / GTACGAGATATAGGAAGGTGCTGTCCGCTC [Sequence 1 sgRNA for APG05459.1 ; target mismatch 18]", "activity": 0}]}, {"test_system": "T2, APG08290.1 (Bacillus sp.)", "T2 sequence": "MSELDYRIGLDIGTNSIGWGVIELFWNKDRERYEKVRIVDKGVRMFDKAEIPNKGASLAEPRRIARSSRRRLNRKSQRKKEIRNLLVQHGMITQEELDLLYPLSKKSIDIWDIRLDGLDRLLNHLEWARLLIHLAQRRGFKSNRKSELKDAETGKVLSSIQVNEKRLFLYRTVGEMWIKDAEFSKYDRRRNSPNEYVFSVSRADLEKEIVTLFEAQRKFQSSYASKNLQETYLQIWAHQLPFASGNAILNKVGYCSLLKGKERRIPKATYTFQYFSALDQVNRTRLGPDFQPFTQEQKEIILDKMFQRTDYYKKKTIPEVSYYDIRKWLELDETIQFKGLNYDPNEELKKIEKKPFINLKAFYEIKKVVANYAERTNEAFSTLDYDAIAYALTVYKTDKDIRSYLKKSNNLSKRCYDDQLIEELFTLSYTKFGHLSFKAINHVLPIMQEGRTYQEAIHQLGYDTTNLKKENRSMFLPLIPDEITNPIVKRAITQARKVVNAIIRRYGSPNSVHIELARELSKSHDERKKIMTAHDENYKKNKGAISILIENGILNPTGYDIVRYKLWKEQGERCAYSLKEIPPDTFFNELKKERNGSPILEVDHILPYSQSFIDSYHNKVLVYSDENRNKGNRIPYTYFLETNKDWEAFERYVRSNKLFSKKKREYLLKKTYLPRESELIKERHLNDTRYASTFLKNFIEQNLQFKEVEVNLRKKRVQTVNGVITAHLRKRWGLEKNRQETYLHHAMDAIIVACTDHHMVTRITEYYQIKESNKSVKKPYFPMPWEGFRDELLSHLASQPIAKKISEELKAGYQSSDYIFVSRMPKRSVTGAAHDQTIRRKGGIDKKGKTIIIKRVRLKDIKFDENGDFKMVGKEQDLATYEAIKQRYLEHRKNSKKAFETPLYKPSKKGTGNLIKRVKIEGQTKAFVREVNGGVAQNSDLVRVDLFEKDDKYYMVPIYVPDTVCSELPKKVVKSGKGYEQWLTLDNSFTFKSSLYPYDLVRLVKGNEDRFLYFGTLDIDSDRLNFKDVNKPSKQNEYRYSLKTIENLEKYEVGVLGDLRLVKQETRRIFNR", "assay": "cleavage_in_vitro", "settings": "not given", "units": {"activity": "% cleaved"}, "values": [{"sequence": "GAGCGGACAGCAGCUUCCUAUAUCUCGUACNNNNNNNNNNNNNNNNNNNNNNNNNGUCAUAGUUCCAUGAAAGCCAAAAGUGGCUUUGAUGUUUCUAUGAUAAGGGUUUCGGCCCGUGGCGUCGGGGAUCGCCUGCCCAUUCCGAUGGGCUUCUCCCCAUUUAUU / CAGCGGACAGCAGCTTCCTATATCTCGTAC / GTACGAGATATAGGAAGCTGCTGTCCGCTG [Sequence 1 sgRNA for APG08290.1 ; target mismatch 30]", "activity": 100}, {"sequence": "GAGCGGACAGCAGCUUCCUAUAUCUCGUACNNNNNNNNNNNNNNNNNNNNNNNNNGUCAUAGUUCCAUGAAAGCCAAAAGUGGCUUUGAUGUUUCUAUGAUAAGGGUUUCGGCCCGUGGCGUCGGGGAUCGCCUGCCCAUUCCGAUGGGCUUCUCCCCAUUUAUU / GAGCGGACAGCACCTTCCTATATCTCGTAC / GTACGAGATATAGGAAGGTGCTGTCCGCTC [Sequence 1 sgRNA for APG08290.1 ; target mismatch 18]", "activity": 100}, {"sequence": "GAGCGGACAGCAGCUUCCUAUAUCUCGUACNNNNNNNNNNNNNNNNNNNNNNNNNGUCAUAGUUCCAUGAAAGCCAAAAGUGGCUUUGAUGUUUCUAUGAUAAGGGUUUCGGCCCGUGGCGUCGGGGAUCGCCUGCCCAUUCCGAUGGGCUUCUCCCCAUUUAUU / GAGCGGACAGCAGCTTCCTAAATCTCGTAC / GTACGAGATTTAGGAAGCTGCTGTCCGCTC [Sequence 1 sgRNA for APG08290.1 ; target mismatch 10]", "activity": 75}, {"sequence": "GAGCGGACAGCAGCUUCCUAUAUCUCGUACNNNNNNNNNNNNNNNNNNNNNNNNNGUCAUAGUUCCAUGAAAGCCAAAAGUGGCUUUGAUGUUUCUAUGAUAAGGGUUUCGGCCCGUGGCGUCGGGGAUCGCCUGCCCAUUCCGAUGGGCUUCUCCCCAUUUAUU / GAGCGGACAGCAGCTTCCTATAACTCGTAC / GTACGAGTTATAGGAAGCTGCTGTCCGCTC [Sequence 1 sgRNA for APG08290.1 ; target mismatch 8]", "activity": 0}, {"sequence": "GAGCGGACAGCAGCUUCCUAUAUCUCGUACNNNNNNNNNNNNNNNNNNNNNNNNNGUCAUAGUUCCAUGAAAGCCAAAAGUGGCUUUGAUGUUUCUAUGAUAAGGGUUUCGGCCCGUGGCGUCGGGGAUCGCCUGCCCAUUCCGAUGGGCUUCUCCCCAUUUAUU / GAGCGGACAGCAGCTTCCTATATCTCGAAC / GTTCGAGATATAGGAAGCTGCTGTCCGCTC [Sequence 1 sgRNA for APG08290.1 ; target mismatch 3]", "activity": 73}, {"sequence": "GAGCGGACAGCAGCUUCCUAUAUCUCGUACNNNNNNNNNNNNNNNNNNNNNNNNNGUCAUAGUUCCAUGAAAGCCAAAAGUGGCUUUGAUGUUUCUAUGAUAAGGGUUUCGGCCCGUGGCGUCGGGGAUCGCCUGCCCAUUCCGAUGGGCUUCUCCCCAUUUAUU / GAGCGGACAGCAGCTTCCTATATCTCGTAG / CTACGAGATATAGGAAGCTGCTGTCCGCTC [Sequence 1 sgRNA for APG08290.1 ; target mismatch 1]", "activity": 0}, {"sequence": "GAGCGGACAGCAGCUUCCUAUAUCUCGUACNNNNNNNNNNNNNNNNNNNNNNNNNGUCAUAGUUCCAUGAAAGCCAAAAGUGGCUUUGAUGUUUCUAUGAUAAGGGUUUCGGCCCGUGGCGUCGGGGAUCGCCUGCCCAUUCCGAUGGGCUUCUCCCCAUUUAUU / GAGCGGACAGCAGCTTCCTATATCTCGTTC / GAACGAGATATAGGAAGCTGCTGTCCGCTC [Sequence 1 sgRNA for APG08290.1 ; target mismatch 2]", "activity": 0}, {"sequence": "GAGCGGACAGCAGCUUCCUAUAUCUCGUACNNNNNNNNNNNNNNNNNNNNNNNNNGUCAUAGUUCCAUGAAAGCCAAAAGUGGCUUUGAUGUUUCUAUGAUAAGGGUUUCGGCCCGUGGCGUCGGGGAUCGCCUGCCCAUUCCGAUGGGCUUCUCCCCAUUUAUU / GAGCGGACAGCAGCTTCCTATATCTGGTAC / GTACCAGATATAGGAAGCTGCTGTCCGCTC [Sequence 1 sgRNA for APG08290.1 ; target mismatch 5]", "activity": 0}, {"sequence": "GAGCGGACAGCAGCUUCCUAUAUCUCGUACNNNNNNNNNNNNNNNNNNNNNNNNNGUCAUAGUUCCAUGAAAGCCAAAAGUGGCUUUGAUGUUUCUAUGAUAAGGGUUUCGGCCCGUGGCGUCGGGGAUCGCCUGCCCAUUCCGAUGGGCUUCUCCCCAUUUAUU / GAGCGGACAGCAGCTTCGTATATCTCGTAC / GTACGAGATATACGAAGCTGCTGTCCGCTC [Sequence 1 sgRNA for APG08290.1 ; target mismatch 13]", "activity": 28}, {"sequence": "GAGCGGACAGCAGCUUCCUAUAUCUCGUACNNNNNNNNNNNNNNNNNNNNNNNNNGUCAUAGUUCCAUGAAAGCCAAAAGUGGCUUUGAUGUUUCUAUGAUAAGGGUUUCGGCCCGUGGCGUCGGGGAUCGCCUGCCCAUUCCGAUGGGCUUCUCCCCAUUUAUU / GAGCGGACTGCAGCTTCCTATATCTCGTAC / GTACGAGATATAGGAAGCTGCAGTCCGCTC [Sequence 1 sgRNA for APG08290.1 ; target mismatch 22]", "activity": 100}]}, {"test_system": "T2, APG08290.1 (Bacillus sp.)", "assay": "cleavage_in_vitro", "settings": "PAM NNRNCC; NTS cut 4, TS cut 3, 1 nt 5' overhang (Table 3)", "units": {"activity": "% cleaved"}, "values": [{"sequence": "GAGCGGACAGCAGCUUCCUAUAUCUCGUACNNNNNNNNNNNNNNNNNNNNNNNNNGUCAUAGUUCCAUGAAAGCCAAAAGUGGCUUUGAUGUUUCUAUGAUAAGGGUUUCGGCCCGUGGCGUCGGGGAUCGCCUGCCCAUUCCGAUGGGCUUCUCCCCAUUUAUU / GAGCGGACAGCAGCTTCCTATATCTCGTAC / GTACGAGATATAGGAAGCTGCTGTCCGCTC [Sequence 1 sgRNA for APG08290.1 ; Sequence 1 target]", "activity": 95}]}, {"test_system": "T2, APG08290.1 (Bacillus sp.)", "assay": "cleavage_in_vitro", "settings": "incompatible PAM", "units": {"activity": "% cleaved"}, "values": [{"sequence": "GAGCGGACAGCAGCUUCCUAUAUCUCGUACNNNNNNNNNNNNNNNNNNNNNNNNNGUCAUAGUUCCAUGAAAGCCAAAAGUGGCUUUGAUGUUUCUAUGAUAAGGGUUUCGGCCCGUGGCGUCGGGGAUCGCCUGCCCAUUCCGAUGGGCUUCUCCCCAUUUAUU / GAGCGGACAGCAGCTTCCTATATCTCGTAC / GTACGAGATATAGGAAGCTGCTGTCCGCTC", "activity": 0}]}]}
